The record followed here is patent publication US8455433B2, “Process for solubilizing glucagon-like peptide 1 compounds” (Eli Lilly and Company, priority 2000, dated 2013).

Bounds are passed on as bounds.

Series [1] is described as follows: Secondary structure by Fourier Transform Infrared Spectroscopy (FTIR). It is filed as physicochemical. The settings on record: for alpha helix percent 1657 cm^-1 / beta sheet character percent 1624 + 1696 cm^-1: Samples 1-5 before and 1A-5A after base excursion pH 12.3, Table 2; for percent alpha helix content / percent beta sheet content: Table 3, pH 10.5 excursion experiment; for 1624 + 1696 cm^-1 total beta sheet, % / 1657 cm^-1 Alpha helix, %: purified, lyophilized batches, Table 1. How it is done:
Four different batches of purified, lyophilized Val-8 GLP-1(7-37)OH were analyzed for secondary structure characteristics by Fourier Transform Infra-red Spectroscopy (FTIR) to assess alpha helix and beta sheet content of the preparations. Deconvolution was done on the Amide I region (1750-1600 cm^−1) using BioRad Win-IR Pro Software version 2.5. The results are shown below in the Table 1:
Each of Samples 1-5 was measured for secondary structure characteristics by Fourier Transform Infrared Spectroscopy (FTIR). In addition, each Sample 1-5 was placed into 20 mM phosphate solution (pH 7.2) and the pH raised to 12.3 by addition of 1N sodium hydroxide for no more than 3 minutes. All samples then dissolved and the solutions became clear. The pH of each solution was then adjusted to 7.0 by addition of 1N hydrochloric acid. Samples 1A-5A, obtained from Samples 1-5, respectively, were then obtained by lyophilization of the solutions and dried in vacuo. The secondary structural characteristics of Samples 1A-5A were assessed by FTIR. The results of the FTIR analysis of Samples 1-5 and 1A-5A are shown below in Table 2:
In another example of the effects of base excursion on secondary structure, a purified, lyophilized sample of Val^8-GLP-1(7-37)OH purified by reversed chromatography was either lyophilized (0.1 gram) or precipitated by addition of sufficient 3.0 M sodium dihydrogen phosphate (pH 3.80) to result in a 0.6 M phosphate solution. The resultant precipitate was washed with 10 mM sodium acetate at pH 5.5 and the washed precipitate was dried in vacuo. A second portion of the washed precipitate was solubilized by raising the pH of the material to 10.5 for 30 minutes at room temperature by addition of 1N sodium hydroxide. The pH of that solution was then reduced to 7.0 by addition of 1.0 N hydrochloric acid and the solution was then lyophilized. The secondary structure of the three samples was determined by FTIR.

A short description of series [2]: physchem. It is filed as physicochemical. How it is done: Val^8-GLP-1(7-37)OH (1 gram) lyophilized powder was dissolved in 25 mM ammonium bicarbonate, pH 8.0 (100 ml). The solution was stirred with a TEFLON stir bar at about 200 rpm at 21° C. (ambient temperature) for 16 hours. At varying times, usually within 30 minutes, the solution became hazy. On continued stirring, the haze became visibly more dense. The kinetics of the turbidity were measured by rate of formation of turbidity, i.e. absorbance at 340 nm. The precipitated protein was harvested either by filtration, e.g. Whatman 1 filter disc, or centrifugation. The supernatant was assayed for protein content either by Biuret Colorimetric Assay obtained from Pierce (Rockford, Ill.) or UV absorbance at 280 nm. By either method, the protein precipitate constituted in excess of 90% of the starting material, i.e. there was less than 10% of the protein remaining in the supernatant fraction. The collected precipitate was dried in vacuo, i.e. in a lyophilizer. The resultant precipitated (0.96 grams) material was soluble in 20 mM phosphate at pH 7.2 at less than 0.01 mg/ml. Solubility was tested by suspension of the solid in the buffer, adjustment of pH, if necessary, and filtration through a 0.2 micron filter. The protein content of the filtrate was tested by either Biuret Colorimetric Assay, UV absorbance at 280 nm, or by high pressure liquid chromatography analysis (HPLC) analysis. […]

With “2A: Sample 2 after pH 12.3 excursion, neutralized to 7.0 and lyophilized [Sample 2A]”, in series [1], the “alpha helix percent 1657 cm^-1” value is reported as 85.9% and the “beta sheet character percent 1624 + 1696 cm^-1” value is listed as “none observed”.

Take “3A: Sample 3 after pH 12.3 excursion, neutralized to 7.0 and lyophilized [Sample 3A]”: in series [1], the “alpha helix percent 1657 cm^-1” value is 62.2% and the “beta sheet character percent 1624 + 1696 cm^-1” value was 23.7%.

In the case of “4A: Sample 4 after pH 12.3 excursion, neutralized to 7.0 and lyophilized [Sample 4A]”, in series [1], the “alpha helix percent 1657 cm^-1” value stood at 86.0% and the “beta sheet character percent 1624 + 1696 cm^-1” value is reported as “none observed”.

As for “5A: Sample 5 after pH 12.3 excursion, neutralized to 7.0 and lyophilized [Sample 5A]”, in series [1], the “alpha helix percent 1657 cm^-1” value stood at 90.6% and the “beta sheet character percent 1624 + 1696 cm^-1” value is “none observed”.

The thermodynamic solubility is the concentration in solution at equilibrium with solid. As for `CC[C@H](C)[C@H](NC(=O)[C@H](Cc1ccccc1)NC(=O)[C@H](CCC(=O)O)NC(=O)[C@H](CCCCN)NC(=O)[C@H](C)NC(=O)[C@H](C)NC(=O)[C@H](CCC(N)=O)NC(=O)CNC(=O)[C@H](CCC(=O)O)NC(=O)[C@H](CC(C)C)NC(=O)[C@H](Cc1ccc(O)cc1)NC(=O)[C@H](CO)NC(=O)[C@H](CO)NC(=O)[C@@H](NC(=O)[C@H](CC(=O)O)NC(=O)[C@H](CO)NC(=O)[C@@H](NC(=O)[C@H](Cc1ccccc1)NC(=O)[C@@H](NC(=O)CNC(=O)[C@H](CCC(=O)O)NC(=O)[C@H](C)NC(=O)[C@@H](N)Cc1c[nH]cn1)[C@@H](C)O)[C@@H](C)O)C(C)C)C(=O)N[C@@H](C)C(=O)N[C@@H](Cc1c[nH]c2ccccc12)C(=O)N[C@@H](CC(C)C)C(=O)N[C@H](C(=O)N[C@@H](CCCCN)C(=O)NCC(=O)N[C@@H](CCCN=C(N)N)C(=O)NCC(=O)O)C(C)C` [GLP-1(7-37)OH], the solubility (thermodynamic) in series [2] (solubility) was below 100 µg/mL; in series [2] (solubility (usually)) it was below 50 µg/mL.

With “Lyophilized mainstream: Val^8-GLP-1(7-37)OH purified by reversed chromatography and lyophilized”, in series [1], the “percent alpha helix content” value worked out at 71% and the “percent beta sheet content” value turned out to be 16%.

For “Phosphate precipitate: Val^8-GLP-1(7-37)OH precipitated in 0.6 M phosphate, washed and dried in vacuo”, in series [1], the “percent alpha helix content” value was 57% and the “percent beta sheet content” value is reported as 35%.

For “Sample 1: Val^8-GLP-1(7-37)OH isoelectric precipitate at pH 5.5 from 10 mM acetic acid”, in series [1], the “alpha helix percent 1657 cm^-1” value was determined as 24.9%; the “beta sheet character percent 1624 + 1696 cm^-1” value is 69.8%; the “1624 + 1696 cm^-1 total beta sheet, %” value amounted to 31.4%; the “1657 cm^-1 Alpha helix, %” value was determined as 62.7%.

Turning to “Sample 2: Val^8-GLP-1(7-37)OH isoelectric precipitate approaching pH 5.5 from the alkaline side”, in series [1], the “alpha helix percent 1657 cm^-1” value amounted to 51.9%; the “beta sheet character percent 1624 + 1696 cm^-1” value is listed as 40.5%; the “1624 + 1696 cm^-1 total beta sheet, %” value came to 29.3%; the “1657 cm^-1 Alpha helix, %” value was found to be 62.8%.

In the case of “Sample 3: gelled Val^8-GLP-1(7-37)OH from acetic acid/25% acetonitrile incubated at 4 C for 3.1 months”, in series [1], the “alpha helix percent 1657 cm^-1” value is listed as 25.5%; the “beta sheet character percent 1624 + 1696 cm^-1” value is on record as 70.0%; the “1624 + 1696 cm^-1 total beta sheet, %” value worked out at 30.6%; the “1657 cm^-1 Alpha helix, %” value was 63.6%.

Regarding “Sample 4: soluble fraction of Val^8-GLP-1(7-37)OH stirred in 10 mM phosphate pH 7.2”, in series [1], the “alpha helix percent 1657 cm^-1” value came to 75.8%; the “beta sheet character percent 1624 + 1696 cm^-1” value is listed as 14.7%; the “1624 + 1696 cm^-1 total beta sheet, %” value came out at 28.9%; the “1657 cm^-1 Alpha helix, %” value worked out at 63.6%.

In the case of “Sample 5: precipitated fraction of Val^8-GLP-1(7-37)OH stirred in 10 mM phosphate pH 7.2”, in series [1], the “alpha helix percent 1657 cm^-1” value came out at 12.9% and the “beta sheet character percent 1624 + 1696 cm^-1” value amounted to 57.3%.

Turning to “pH 10.5 excursion: washed phosphate precipitate solubilized at pH 10.5 for 30 minutes, reduced to pH 7.0, lyophilized”, in series [1], the “percent alpha helix content” value is 71% and the “percent beta sheet content” value worked out at 13%.
